Here are results for 1 substance from paper PMC10680838.

This assay has as its target DcpA (Agrobacterium tumefaciens C58). In words: cross-linking.

Usually stoichiometry N stands for the number of molecules, sites or subunits per partner or assembly. PruR (natural protein) returned a stoichiometry N of 1.
